The data set in a line: soluble on expression in E. coli; label from the status in PepcDB or PDB records.
For “MGSDKIHHHHHHMLMGSKDKVISILKEKGPISQTELSKLSGLSKSRLSEVLSELEKQGIVKRRKVLGKNLEVSLSQDRFLRLGIIRAAEYPFIIPFIKNLENRGYSVTVKIYENGIDLTRDLVEAKLDLGLSPIITQIIFSTIYRNIRIIGGGAKGGGGIIGKTCNRIASTVMSSMEIWAFSEFKNIEIIPSYSSYEMLDFLEKGIVDGIAIWEPFLSILERKGHKVHRFTPLHCCTLAVRETMDWERIKNIYEESFSWFKSSIDRWVSSYSNLLNIDYNILKEASKNYEFDYYLDLKEFKNSLKNTGIFIPI”, the “soluble on expression in E. coli” value is on record as “not soluble”.
Next, “MPYIILEDQTRLYYETHGSGTPILFIHGVLMSGQFFHKQFSVLSANYQCIRLDLRGHGESDKVLHGHTISQYARDIREFLNAMELDHVVLAGWSMGAFVVWDYLNQFGNDNIQAAVIIDQSASDYQWEGWEHGPFDFDGLKTAMHAIQTDPLPFYESFIQNMFAEPPAETETEWMLAEILKQPAAISSTILFNQTAADYRGTLQNINVPALLCFGEDKKFFSTAAGEHLRSNIPNATLVTFPKSSHCPFLEEPDAFNSTLLSFLDGVIGKS”: “not soluble”.
Next, “GSEVAIKMVVVGNGAVGKSSMIQRYCKGIFTKDYKKTIGVDFLERQIQVNDEDVRLMLWDTAGQEEFDAITKAYYRGAQACVLVFSTTDRESFEAISSWREKVVAEVGDIPTALVQNKIDLLDDSCIKNEEAEGLAKRLKLRFYRTSVKEDLNVSEVFKYLAEKHLQK”: “soluble”.
Take “MSSFIEMIENITPDVYESLKLAVEIGKWSDGRKLTQEQRELSLQALIAWEAQNLPEDQRTGYMGPQECASKSAPVPNILFKSDAIH”: the “soluble on expression in E. coli” value is reported as “not soluble”.
To “MGSDKIHHHHHHMAIQQLEKPEHAGRRTAPEITVSGIGKRYGATPVLMDVTLSVTPGEIHGIMGENGAGKSTLLKILGGAIMADSGTMELDGNPVRITTPRDAISQGISLISQELALIPNLSVLENVFLGRWSNRGSLLRPTKDGDHFARLLEETGFDLDPRATVGNLPIGQQQQVEILKALARGAKVLCMDEPTAVLNEAEKEKLLQVIKRLAQTGTTILIVSHYLEEVLELVDRVTILRDGQHIVTEDAAGHTPESLVRLMVGRDVDFLLPEIRQVQSQADTVLRVVGLTSAKVKEISFQVRRGEILGIAGLVGSGRSETLLAVFGADRTTGGHVEVNGRRIRASSIRDAIKAGIALIPESRKEQGLVMSRPASENIALSTLSGRSWAGFVSARREKAAVKDVSRSVDLRGARPGQPIANLSGGNQQKALFAKWLLDPPAVLLVDEPTRGVDIAAKARIHSIIAELAAKGTAVIVVSSELEEVLGLSHRIHVMRHGRIVAEFDRNASRDEVMTSAFLK” belongs “not soluble”; to “MKSKFEASIDNLKEIEMNAYAYELIREIVLPDMLGQDYSSMMYWAGKHLARKFPLESWEEFPAFFEEAGWGTLTNVSAKKQELEFELEGPIISNRLKHQKEPCFQLEAGFIAEQIQLMNDQIAESYEQVKKRADKVVLTVKWDMKDPVMAGDPLEHHHHHH”, “soluble”; to “MSLTLKLLAEVAGEKVSRFDNKGDIWYDLISAVHKSIRGSNPDAALYWSARMIAAGCDPLYIARRLLAIASEDVGNADPRAMQVALSAWDCFTRVGPAEGERAIAQAIVYLACAPKSNAVYTAWKQALSDAHNLPEFEVPFHLRNAPTGLMKDLGYGEGYRYAHDEPGAYAAGEQYLPAEIDDRKYYQPTNRGLESKIAEKLDYLANLDANSPQKRYEEGHHHHHH”, “not soluble”.
To “VNIKTNPFKAVSFVESAIKKALDNAGYLIAEIKYDGVRGNICVDNTANSYWLSRVSKTIPALEHLNGFDVRWKRLLNDDRCFYKDGFMLDGELMVKGVDFNTGSGLLRTKWTDTKNQEFHEELFVEPIRKKDKVPFKLHTGHLHIKLYAILPLHIVESGEDCDVMTLLMQEHVKNMLPLLQEYFPEIEWQAAESYEVYDMVELQQLYEQKRAEGHEGLIVKDPMCIYKRGKKSGWWKMKPENEADGIIQGLVWGTKGLANEGKVIGFEVLLESGRLVNATNISRALMDEFTETVKEATLSQWGFFSPYGIGDNDACTINPYDGWACQISYMEETPDGSLRHPSFVMFR” belongs “soluble”; to “TVKSGLILQSISNDVYHNLAVEDWIHDHMNLEGKPVLFLWRNSPTVVIGRHQNPWQECNLNLMREEGVKLARRRSGGGTVYHDMGNINLTFFTTKKKYDRMENLKLVVRALKAVHPHLDVQATKRFDLLLDGQFKISGTASKIGRNAAYHHCTLLCGTDGTFLSSLLKSPYQGIRSNATASTPALVKNLMEKDPTLTCEVVINAVATEYATSHQIDNHIHLINPTDETVFPGINSKAIELQTWEWIYGKTPKFSVDTSFTVLHEQSHVEIKVFIDVKNGRIEVCNIEAPDHWLPLEICDQLNSSLIGSKFSPIETTVLTSILHRTYPGDDELHSKWNILCEKIKGIM”, “soluble”; to “VDTHSEVLIFEVIPADDFLQQQLQITVQDRVWHVKRVRYRKQKPMALEETWMPLALFPDLTWQVMENSKYHFIEEVKKMVIDRSEQEIIPLMPTEEMSRLLNISQTKPILEKVSRGYLVDGRVFEYSRNAFNT”, “soluble”.
To “MGSDKIHHHHHHMKAGISLSLSLALSCSAVAQGQKISVPPVFNIFELVIRQDKNNAYDSLAEKNITASVTGEPGTLAMYSAKKKTNPSVTYMYEIYADSDAYDKHLNSTSYKEFLRNSPDILETSQTRRIDVIPQFLADKKIVQNDSTINNFVIVDVKPELGQAFRHVVLPEMAQSIEREEGVLAMYAAIDKANRNRWYFYEIYASENAYQAHRLTPHFKAYINQTAEMTTYKEAIDIKPGLLMNKGGMRYENE” belongs “not soluble”.
On to “MNEILKCIGCGAPLQSENKDAPGYVPEHNMFREDVICRRCFRLKNYNEVQDVGMESEDFLNLLTGLSEKKGIIVNVVDVFDFEGSFINAIQRIVGNKKIILVANKIDLLPKQINHRRVKEWLRKSARKYGLEAEDVVLISANKGWGIDELLQSINHVRNKDDVYIVGTTNVGKSTLINKLIEQSVGEKDVVTTSRFPGTTLDMIDIPLDEKSFMFDTPGIIQSHQMTNYVSENELKIIIPKNEIKQRVYQLNEKQTLFFGGLARIDYVSGGKRPLVCFFSNDLNIHRTKTEKANDLWKSQLGALLSPPQDAQQFNLNDVKAVRLETGKTKRDIMISGLGFITIDAGAKVIVRVPKHVDVILRNSILLEHHHHHH”, for which the “soluble on expression in E. coli” value is on record as “soluble”.
Next, “MAHHHHHHMVTLNSTKPQVVIEASGVPTIQTSSITSPVVLTTPLGKSMYSSYSYSNPVSSSYSSSHHNECEYNWERVSTKPSQSTQHGEYMKTFEVPTGLYYETLPLKRNTNNIFEVTPSKEELEKINYNPRIEVYSTCNFVIIMMDLPGVSKENLKVELENGVLKIFGHKYKVPLEELQTEHEYHTKIIERVGEYYFCKMFQMPPVFSDGQSISCTLRDGELTFKMLASDLRAQKRVVEVQS”: “not soluble”; “MGSDKIHHHHHHMSRESALSRASRYFEAGDFQSDLAHLVTYRSESQNTAPEARMECRRYLEEAMLPRLRALGFDCEIIDNPDPTGGPLLIGERREGEALPTILTYGHGDAVLGQEGRWREGLEPWVLVEEGDRLYGRGTADNKGQHLINIAALEAVLAERGHLGFNTRIVIEMSEEVGSVGLPDVFRAYKDRLTADVLIASDGPRLQPDVPTMFMGSRGGTTFDLVVETHEGAHHSGNWGGLLSDPAMILAHALACITDVRGQIKVPEWRPDSLTENVRMALRDLPVAGGQGPAVNPDWGEEDLTPAERVFGWNSFTVLAMVSGVPEAPVNAISGWARATCQLRYVVGTDPEDVVPALRRHLDAHGFESVEIRCHERGFFAATRLDPDHPWAQFVGESIRRTSGALHVLPNLAGSLPNDSFTDILEVPTIWVPHSYRGCSQHAPNEHVLKSVYHDALRVMAGVFWDLGEQGGPLA”: “not soluble”; “MNNKNLALKAPLSGPVMPLNRVPDPVFSSGTLGEGIAIDPLNDCLHAPCAGLVSHLARTRHALSLRADNGAELLLHVGLDTVQLQGEGFEALVEEGARVIEGQPLLRFDLDRVARGSRSLITVMILTNGDGFQVRPLTTNPVEVGAPLLQLSPEKAEQRPANPAPGEGSAQRQVRGRARVAHHGGLHARPAALLRKTAQGFSSQAELHFAGQVASVDSLVGIMGLGVAEQDEVEVICRGEDSEAALGALLAALASATAGAPKDAPRAIAPGEPARPAAVAGTLAGVCASPGLASGPLARLGAISLPADDGRHRPEEQHLALDQALQRVRDDVQGSLQQARLGGDENEAAIFSAHLALLEDPGLLDAADMLIDQGVGAAHAWHRAIQAQCEILQALGNLLLAERANDLRDLEKRVLRVLLGDTAPLRVPAGAIVAAREITPSDLAPLVDAGAAGLCMAEGGATSHVAILARSKGLPCLVALGAGLLELEEGRQVVLDAGQGRLELSPDARRLEQVALQVAQREEQRRRQQADAQREALTRDGRRIEIGANVASPREAAEAFANGADGVGLLRTEFLFLERRAAPDEEEQRNAYQEVLDAMGQRKVIIRTIDVGGDKHLDYLPLPVEENPALGLRGIHLGQARPELLDQQLRALLRVEPLERCRILLPMVSEVDELRAIRRRLGELATQLGIERLPELGVMIEVPSAALLADQLAEHADFLSIGTNDLSQYALAMDRCHAGLADRIDALHPALLRLIAQTCAGAARHGRWVGVCGALASDPLATPVLVGLGVEELSVGPNLVGEIKTRVRQLDAAECRRHAQALLDLGSARAVRDACLQ”: “not soluble”.
To “MGSDKIHHHHHHMIMSEKSIVQEARDIQLAMELINLGARLQMLESETQLSRGRLIRLYKELRGSPPPKGMLPFSTDWFMTWEQNIHASMFCNAWQFLLKTGLCSGVDAVIKAYRLYLEQCPQPPEGPLLALTRAWTLVRFVESGLLELSSCNCCGGNFITHAHQPVGSFACSLCQPPSRAVKRRKLSRDAADIIPQLLDEQIEQAV” belongs “not soluble”; to “MSLQKTSFALLVAALQLASASALAATPPVADAIWFNGPIITIDDQHPKAQAVAVKDGKILAVGDRQHVLKNKGPATQMLDLKGATLLPGFVDPHGHVSMVGFQAASANLLPPPDGTNNSIPGLQETLRRFEQQSPIPKQFGVLFGFGYDDSQLQEQRHPTKADLDAVTRDLPIAIVHQSSHLGVLNSKALELAGIDASTPNPEGGVIRRVDGSQEPNGVLEENAFFNALIRIFPKLTADQAVDMLSAGQKLYVSYGYTTIQDGRSSPDQVKTAIKAAGDGKLLADIVSYPDILTPGVKQLMVAPWYHPSNQPVVYNQHFRIGGVKLTLDGSPQGKTAWLSQPYFKPPQGQDASYAGYGVVKDADALAIYKEALANRWQILSHTNGDRAIDQLLGSMRAAEQAYPGVDVRPVMIHGQTLRKDQVAELKQLKIFPSLFPMHTYYWGDWHRQSVLGPERAENISPTQWVLQAGMKFTTHHDAPVALPDSMRVLAATVNRTTRSGYVLGPDQRVTPLQALKAMTLWSAYQHFEEDRKGSITPGKLADFAVLSANPLTVKPETLSEIQVLKTVKEGRVIYERPAKVASEGHHHHHH”, “soluble”; to “MGSDKIHHHHHHMHYQFFATCPRGLEPLLEDELNSIRARQIKPTDGGVGFAGDMLLCYRANLESRIATRILLQVGKGRYSNEDELYQGAYKIDWVQWFEVEQDFMVKVTGVRCPLKSLEFATLRIKDAICDRFREEVGSRPSIDTREPDVRVHAYLGAEEYQLYVDTSGNALYQRGLRRASIEAPLRENLAAGILKLSGWQPGTPLLDPMCGSGTFLLEAAMISLDIAPGSNRSFGFERLKNFNAGAWQSLLKQAKSRAKPVAFQGIYGSDADLRAVRITRKNLEQAGLLDAMQVAHREFTDVVPPAAEGILVANPPYGVRIGEDEELAALYPKMGEALKKKFAGWNAYFLTNDMRLPKLMRLSPTKRTPLFNGPLECRVFEIKMVAGSNRKEKSND”, “not soluble”.

For the origin of these results see the DeepSol protein solubility set.
